Assay results: US20260027220A1, “EPHA2 BCL-XL INHIBITOR ANTIBODY-DRUG CONJUGATES AND METHODS OF USE THEREOF” (Novartis AG, priority 2022, published 2026)
Positions count from the first letter of the chain named. Names and notes keep the numbering of the source. Values joined by “and” are separate entries in the source; they are usually repeats but may differ in a detail not shown here. Equal entries are not always repeated. Each block holds one binder with its values, some of them ahead of it.

Legend:
[1] = molecular target: T1, human EphA2 expressed on HKB-11 cells (human, UniProt P29317 24-976); test: KinExA apparent (avid) equilibrium KD on human EphA2 HKB-11 cells
T1 construct: The HKB-11 cells were transduced to overexpress EphA2; also called HKB-11 EphA2+ cell line
Description: (§1) Free antibody in equilibrium titration reactions were measured by KinExA using a KinExA 3200, Autosampler (Sapidyne). Data were analyzed using KinExA Pro 4-5-X (Sapidyne).
(§2) Anti-EphA2 antibody was diluted in PBS with 10% HI-FBS and 0.04% sodium azide to 2× the final concentration of binding sites needed for equilibrium titration. […] Cells and antibody were combined 1:1 in an eppendorf tube and incubated overnight, 4° C., rotating. Buffer and antibody alone samples were included. Cells were pelleted and supernatants were transferred to a 2 ml 96-well deep well plate covered with pierceable film.
Data were analyzed by n-Curve Analysis.

human EphA2 ectodomain [2] = molecular target: T2, human EphA2 ectodomain (human, UniProt P29317 24-537); test: SPR (Biacore 8k), Fab-capture, 37C, 1:1 model;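 also: Anti-EphA2 IgG captured via immobilized anti-Fab, soluble EphA2 ectodomain as analyte at six twofold dilutions from 50 nM, HBS-EP+ pH 7.6 running buffer, double reference subtraction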
T2 construct: Soluble ectodomain used as the SPR analyte
Description: (§3) A human Fab capture method was utilized in order to determine kinetics for the antibodies. […] Each channel has two flow cells. The reference flow cell contained only immobilized anti-Fab, whereas the reaction flow cell captured anti-EphA2 IgG through anti-Fab. HBS-EP+ Buffer, pH 7.6 was used as the running buffer. The soluble human, mouse and cyno EphA2 ectodomain flowed over both flow cells on 8 channels. The EphA2 ectodomain concentration started at 50 nM and was serially diluted at one part to one part (1:1) in the running buffer for six concentrations. The analysis chamber was kept at 37° C. Regeneration was performed at the end of each sample washing with the solution of 10 mM Glycine-HCl, pH 2.1 provided in the kit.
(§4) The data were analysed using the Biacore Insight Evaluation Software. Double reference subtraction was completed to generate the final data. The raw data was fitted to a 1:1 binding model, with parameter(s) Rₘₐₓ set to local.

cyno EphA2 ectodomain [3] = molecular target: T3, cyno EphA2 ectodomain (cyno, UniProt Q1KL86 25-537); test: SPR (Biacore 8k), Fab-capture, 37C, 1:1 model;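 also: Anti-EphA2 IgG captured via immobilized anti-Fab, soluble EphA2 ectodomain as analyte at six twofold dilutions from 50 nM, HBS-EP+ pH 7.6 running buffer, double reference subtraction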
T3 construct: extracellular domain
Description: as §3, §4

mouse EphA2 ectodomain [4] = molecular target: T4, mouse EphA2 ectodomain (mouse, UniProt Q03145 26-538); test: SPR (Biacore 8k), Fab-capture, 37C, 1:1 model;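 also: Anti-EphA2 IgG captured via immobilized anti-Fab, soluble EphA2 ectodomain as analyte at six twofold dilutions from 50 nM, HBS-EP+ pH 7.6 running buffer, double reference subtraction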
T4 construct: extracellular domain
Description: as §3, §4

[5] = molecular target: T1, human EphA2 expressed on HKB-11 cells; test: flow cytometry on HKB-11 cells overexpressing EphA2; lot VE-39-AK34
Description: (§5) The binding affinity of EphA2 antibodies on cells was evaluated using flow cytometry (FACS). […] Cell lines were cultured in media that is optimal for their growth at 5% CO₂, 37° C. in a tissue culture incubator. Cell viability and cell density were determined using a cell counter (Vi-Cell XR Cell Viability Analyzer, Beckman Coulter). […] All subsequent steps were performed on ice and in ice cold FACS buffer to prevent internalization of the receptor. Cells were resuspended in 100 μL of FACS buffer containing an 11-point serial dilution of test antibodies at final concentrations of 200 nM-0.003 nM. Cells were incubated at 4° C. for 45 minutes. Following incubation, cells were washed three times in ice cold PBS at 1000 rpm for 5 minutes with 200 μL FACS buffer. […] Cells were incubated in the dark at 4° C. for 45 minutes. Following incubation, cells were washed three times in ice cold PBS at 1000 rpm for 5 minutes with 200 μL FACS buffer. Cells were then resuspended in 100 μL FACS buffer containing DAPI (ThermoFisher, #D1306) staining followed by readout via flow cytometry (MACSQuant® Analyzer 10). Data was analyzed using FlowJo v10.8.1 to obtain MFI (Mean Fluorescence Intensity) on live cells. EC₅₀ values were calculated using the GraphPad Prism 9 software. There were three rounds of experiments performed to evaluate three groupings of EphA2 antibodies. […]

[6] = molecular target: T1, human EphA2 expressed on HKB-11 cells; test: flow cytometry on HKB-11 cells overexpressing EphA2; lot DE-54-AX20
Description: as §5

[7] = molecular target: T1, human EphA2 expressed on HKB-11 cells; test: KinExA avid equilibrium KD on cells, average of replicates
Description: as §1, §2
Data were analyzed by n-Curve Analysis.

[8] = molecular target: T1, human EphA2 expressed on HKB-11 cells; test: flow cytometry on HKB-11 cells overexpressing EphA2; lot ZF-74-CQ11
Description: as §5

[9] = molecular target: T1, human EphA2 expressed on HKB-11 cells; test: flow cytometry on HKB-11 cells overexpressing EphA2; lot ZE-39-AG34
Description: as §5

human EphA2 ectodomain [10] = molecular target: T2, human EphA2 ectodomain; test: SPR (Biacore 8k), Fab-capture, 37C, 1:1 model; *low binding signal;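 as to koff: Anti-EphA2 IgG captured via immobilized anti-Fab, soluble EphA2 ectodomain as analyte at six twofold dilutions from 50 nM, HBS-EP+ pH 7.6 running buffer, double reference subtraction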
Description: as §3, §4

cyno EphA2 ectodomain [11] = molecular target: T3, cyno EphA2 ectodomain; test: as above
Description: as §3, §4

[12] = molecular target: T1, human EphA2 expressed on HKB-11 cells; test: flow cytometry on HKB-11 cells overexpressing EphA2; lot PA-62-QD06
Description: as §5

mouse EphA2 ectodomain [13] = molecular target: T4, mouse EphA2 ectodomain; test: SPR (Biacore 8k), Fab-capture, 37C, 1:1 model; *low binding signal
Description: as §3, §4

[14] = molecular target: T1, human EphA2 expressed on HKB-11 cells; test: flow cytometry on HKB-11 cells overexpressing EphA2; lot DC-69-ID09
Description: as §5

[15] = molecular target: T1, human EphA2 expressed on HKB-11 cells; test: flow cytometry on HKB-11 cells overexpressing EphA2; lot PE-07-PN32
Description: as §5

[16] = molecular target: T1, human EphA2 expressed on HKB-11 cells; test: flow cytometry on HKB-11 cells overexpressing EphA2; lot FE-76-NO13
Description: as §5

[17] = molecular target: T1, human EphA2 expressed on HKB-11 cells; test: flow cytometry on HKB-11 cells overexpressing EphA2; lot DE-39-AD34
Description: as §5

[18] = molecular target: T1, human EphA2 expressed on HKB-11 cells; test: flow cytometry on HKB-11 cells overexpressing EphA2; lot HD-58-MP05
Description: as §5

cyno EphA2 ectodomain [19] = molecular target: T3, cyno EphA2 ectodomain; test: SPR (Biacore 8k), Fab-capture, 37C
Description: as §3, §4

mouse EphA2 ectodomain [20] = molecular target: T4, mouse EphA2 ectodomain; test: SPR (Biacore 8k), Fab-capture, 37C
Description: as §3, §4

[21] = molecular target: T1, human EphA2 expressed on HKB-11 cells; test: flow cytometry on HKB-11 cells overexpressing EphA2; lot HA-13-AF39
Description: as §5

[22] = molecular target: T1, human EphA2 expressed on HKB-11 cells; test: flow cytometry on HKB-11 cells overexpressing EphA2; lot HE-07-PV32
Description: as §5

[23] = molecular target: T1, human EphA2 expressed on HKB-11 cells; test: flow cytometry on HKB-11 cells overexpressing EphA2; lot DA-62-QP06
Description: as §5

[24] = molecular target: T1, human EphA2 expressed on HKB-11 cells; test: FACS titration on HKB-11 cells transduced to overexpress EphA2 (200 to 0.003 nM antibody, Alexa Fluor 647 anti-human IgG, MFI of live cells)
Description: as §5

T3 sequence (Q1KL86 25-537): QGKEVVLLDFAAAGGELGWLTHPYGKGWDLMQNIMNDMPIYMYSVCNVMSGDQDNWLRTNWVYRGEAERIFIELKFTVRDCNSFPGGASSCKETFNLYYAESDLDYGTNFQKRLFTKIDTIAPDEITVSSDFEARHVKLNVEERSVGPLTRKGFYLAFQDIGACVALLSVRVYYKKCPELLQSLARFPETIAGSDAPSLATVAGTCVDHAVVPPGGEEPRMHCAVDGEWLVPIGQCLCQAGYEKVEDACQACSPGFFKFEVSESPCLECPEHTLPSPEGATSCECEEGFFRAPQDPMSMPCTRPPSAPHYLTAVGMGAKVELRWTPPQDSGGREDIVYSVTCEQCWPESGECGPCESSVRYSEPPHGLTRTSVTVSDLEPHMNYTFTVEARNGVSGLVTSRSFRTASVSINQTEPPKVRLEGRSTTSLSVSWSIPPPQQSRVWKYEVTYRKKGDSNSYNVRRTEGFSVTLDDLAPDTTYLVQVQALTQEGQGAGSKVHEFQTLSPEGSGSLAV
T1 sequence (P29317 24-976 limits assumed): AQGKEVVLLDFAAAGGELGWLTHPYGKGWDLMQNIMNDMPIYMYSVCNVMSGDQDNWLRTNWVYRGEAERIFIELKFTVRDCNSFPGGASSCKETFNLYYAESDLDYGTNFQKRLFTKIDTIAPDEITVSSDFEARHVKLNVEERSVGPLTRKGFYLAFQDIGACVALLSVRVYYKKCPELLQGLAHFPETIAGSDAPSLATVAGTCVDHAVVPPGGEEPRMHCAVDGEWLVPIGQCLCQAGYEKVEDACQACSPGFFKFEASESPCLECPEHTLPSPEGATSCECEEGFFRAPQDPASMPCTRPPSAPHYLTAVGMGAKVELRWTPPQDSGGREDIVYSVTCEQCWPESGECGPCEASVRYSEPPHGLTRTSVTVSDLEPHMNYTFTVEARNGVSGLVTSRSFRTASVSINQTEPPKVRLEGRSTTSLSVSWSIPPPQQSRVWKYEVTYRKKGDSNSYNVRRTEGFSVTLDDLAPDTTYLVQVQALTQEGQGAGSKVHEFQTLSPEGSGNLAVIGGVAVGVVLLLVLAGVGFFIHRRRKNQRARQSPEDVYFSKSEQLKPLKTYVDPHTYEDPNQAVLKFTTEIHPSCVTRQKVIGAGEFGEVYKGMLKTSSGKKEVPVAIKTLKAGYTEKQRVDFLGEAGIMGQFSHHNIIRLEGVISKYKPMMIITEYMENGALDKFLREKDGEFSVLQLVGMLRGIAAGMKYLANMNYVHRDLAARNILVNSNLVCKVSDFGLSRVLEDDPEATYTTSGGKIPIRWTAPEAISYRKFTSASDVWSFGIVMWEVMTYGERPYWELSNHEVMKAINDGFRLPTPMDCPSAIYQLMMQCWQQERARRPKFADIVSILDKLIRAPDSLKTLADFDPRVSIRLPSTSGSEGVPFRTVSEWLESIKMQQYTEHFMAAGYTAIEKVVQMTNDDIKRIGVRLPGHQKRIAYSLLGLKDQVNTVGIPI
T2 sequence (P29317 24-537 limits assumed): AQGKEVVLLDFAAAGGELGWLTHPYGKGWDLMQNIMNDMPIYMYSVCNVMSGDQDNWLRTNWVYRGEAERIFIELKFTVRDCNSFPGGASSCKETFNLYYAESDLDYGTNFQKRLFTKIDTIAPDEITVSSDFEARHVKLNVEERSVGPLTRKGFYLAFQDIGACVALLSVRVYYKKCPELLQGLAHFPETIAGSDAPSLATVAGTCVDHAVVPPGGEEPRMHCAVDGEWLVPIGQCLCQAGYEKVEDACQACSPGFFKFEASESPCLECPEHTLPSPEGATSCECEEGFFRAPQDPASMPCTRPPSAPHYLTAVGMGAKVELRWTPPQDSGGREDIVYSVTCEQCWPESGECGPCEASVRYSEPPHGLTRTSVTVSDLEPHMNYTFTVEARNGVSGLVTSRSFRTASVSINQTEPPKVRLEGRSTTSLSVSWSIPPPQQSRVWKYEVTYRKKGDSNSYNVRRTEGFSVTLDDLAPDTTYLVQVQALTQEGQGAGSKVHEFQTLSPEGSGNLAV
T4 sequence (Q03145 26-538): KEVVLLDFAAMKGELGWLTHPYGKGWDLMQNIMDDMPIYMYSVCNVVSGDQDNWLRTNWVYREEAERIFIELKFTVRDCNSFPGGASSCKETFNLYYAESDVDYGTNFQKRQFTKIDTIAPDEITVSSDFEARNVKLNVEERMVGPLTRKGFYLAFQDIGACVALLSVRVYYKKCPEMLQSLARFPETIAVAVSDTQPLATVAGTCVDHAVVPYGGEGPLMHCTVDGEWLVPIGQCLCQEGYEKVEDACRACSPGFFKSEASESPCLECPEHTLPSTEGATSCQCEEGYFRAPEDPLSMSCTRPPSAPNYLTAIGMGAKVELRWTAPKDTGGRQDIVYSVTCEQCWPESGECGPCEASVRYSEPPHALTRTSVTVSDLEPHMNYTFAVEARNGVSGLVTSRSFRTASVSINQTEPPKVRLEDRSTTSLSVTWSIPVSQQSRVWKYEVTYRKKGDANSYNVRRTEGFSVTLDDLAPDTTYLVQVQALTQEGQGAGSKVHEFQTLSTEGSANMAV

B1: anti-EphA2 E152C S375C 1C1 (LC N92Q) hIgG1 (WT Heavy Chain) (antibody, V domains shown)
VH: EVQLLESGGGLVQPGGSLRLSCAASGFTFSHYMMAWVRQAPGKGLEWVSRIGPSGGPTHYADSVKGRFTISRDNSKNTLYLQMNSLRAEDTAVYYCAGYDSGYDYVAVAGPAEYFQHWGQGTLVTVSS
VL: DIQMTQSPSSLSASVGDRVTITCRASQSISTWLAWYQQKPGKAPKLLIYKASNLHTGVPSRFSGSGSGTEFSLTISGLQPDDFATYYCQQYQSYSRTFGQGTKVEIKR
notes: also called 1C1 N92Q IgG; DE-54-AX20
Kd [1]: 0.089 nM and 0.138 nM | Kd (human EphA2 ectodomain [2]): 196 nM | koff (human EphA2 ectodomain [2]): 0.0531 s⁻¹ | kon (human EphA2 ectodomain [2]): 271000 M⁻¹ s⁻¹ | Kd (cyno EphA2 ectodomain [3]): 230 nM | koff (cyno EphA2 ectodomain [3]): 0.0719 s⁻¹ | kon (cyno EphA2 ectodomain [3]): 313000 M⁻¹ s⁻¹ | Kd (mouse EphA2 ectodomain [4]): 385 nM | koff (mouse EphA2 ectodomain [4]): 0.0661 s⁻¹ | kon (mouse EphA2 ectodomain [4]): 172000 M⁻¹ s⁻¹ | EC50 [5]: 1.95 nM | EC50 [6]: 3.83 nM | Kd [7]: 0.114 nM

B2: anti-EphA2 E152C S375C 1C1 (LC G77S) hIgG1 (WT Heavy Chain) (antibody, V domains shown)
VH: B1 VH
VL: B1 VL with G77S, Q92N
notes: also called 1C1 G77S IgG; ZF-74-CQ11
EC50 [8]: 3.73 nM | Kd [1]: 0.171 nM | EC50 [9]: 2.21 nM | Kd (human EphA2 ectodomain [2]): 186 nM | Kd (cyno EphA2 ectodomain [3]): 222 nM | Kd (mouse EphA2 ectodomain [4]): 369 nM

B3: anti-EphA2 E152C S375C 1C1 (LC S93V) hIgG1 (WT Heavy Chain) (antibody, V domains shown)
VH: B1 VH
VL: B1 VL with Q92N, S93V
notes: also called PA-62-QD06
Kd (human EphA2 ectodomain [10]): 268 nM | Kd (cyno EphA2 ectodomain [11]): 246 nM | koff (human EphA2 ectodomain [2]): 0.0792 s⁻¹ | kon (human EphA2 ectodomain [2]): 296000 M⁻¹ s⁻¹ | koff (cyno EphA2 ectodomain [3]): 0.105 s⁻¹ | kon (cyno EphA2 ectodomain [3]): 428000 M⁻¹ s⁻¹ | Kd (mouse EphA2 ectodomain [4]): 286 nM | koff (mouse EphA2 ectodomain [4]): 0.0508 s⁻¹ | kon (mouse EphA2 ectodomain [4]): 178000 M⁻¹ s⁻¹ | EC50 [12]: 20.2 nM

B4: anti-EphA2 E152C S375C 1C1 (LC S10T_S72T_G77S) hIgG1 (WT Heavy Chain) (antibody, V domains shown)
VH: B1 VH
VL: B1 VL with S10T, S72T, G77S, Q92N
notes: also called 3x germ
Kd (human EphA2 ectodomain [10]): 398 nM | Kd (cyno EphA2 ectodomain [11]): 137 nM | Kd (mouse EphA2 ectodomain [13]): 328 nM | koff (human EphA2 ectodomain [2]): 0.0996 s⁻¹ | kon (human EphA2 ectodomain [2]): 250000 M⁻¹ s⁻¹ | koff (cyno EphA2 ectodomain [3]): 0.121 s⁻¹ | kon (cyno EphA2 ectodomain [3]): 886000 M⁻¹ s⁻¹ | koff (mouse EphA2 ectodomain [4]): 0.0635 s⁻¹ | kon (mouse EphA2 ectodomain [4]): 193000 M⁻¹ s⁻¹ | EC50 [14]: 23.9 nM

B6: anti-EphA2 E152C S375C 1C1 (LC S72T) hIgG1 (WT Heavy Chain) (antibody, V domains shown)
VH: B1 VH
VL: B1 VL with S72T, Q92N
notes: also called 1C1 S72T IgG; FE-76-NO13
Kd [1]: 0.132 nM and 0.143 nM | EC50 [16]: 3.19 nM | Kd (human EphA2 ectodomain [2]): 216 nM | koff (human EphA2 ectodomain [2]): 0.0518 s⁻¹ | kon (human EphA2 ectodomain [2]): 240000 M⁻¹ s⁻¹ | Kd (cyno EphA2 ectodomain [3]): 230 nM | koff (cyno EphA2 ectodomain [3]): 0.17 s⁻¹ | kon (cyno EphA2 ectodomain [3]): 737000 M⁻¹ s⁻¹ | Kd (mouse EphA2 ectodomain [4]): 377 nM | koff (mouse EphA2 ectodomain [4]): 0.0512 s⁻¹ | kon (mouse EphA2 ectodomain [4]): 136000 M⁻¹ s⁻¹ | EC50 [17]: 2.12 nM | Kd [7]: 0.137 nM

B7: anti-EphA2 E152C S375C 1C1 (LC S93A) hIgG1 (WT Heavy Chain) (antibody, V domains shown)
VH: B1 VH
VL: B1 VL with Q92N, S93A
notes: also called HD-58-MP05
EC50 [18]: 3.44 nM | Kd (human EphA2 ectodomain [2]): 265 nM | koff (human EphA2 ectodomain [2]): 0.131 s⁻¹ | kon (human EphA2 ectodomain [2]): 493000 M⁻¹ s⁻¹ | Kd (cyno EphA2 ectodomain [3]): 259 nM | koff (cyno EphA2 ectodomain [3]): 0.181 s⁻¹ | kon (cyno EphA2 ectodomain [3]): 697000 M⁻¹ s⁻¹ | Kd (mouse EphA2 ectodomain [4]): 343 nM | koff (mouse EphA2 ectodomain [4]): 0.0625 s⁻¹ | kon (mouse EphA2 ectodomain [4]): 182000 M⁻¹ s⁻¹

B8: anti-EphA2 E152C S375C 1C1 (LC N92A) hIgG1 (WT Heavy Chain) (antibody, V domains shown)
VH: B1 VH
VL: B1 VL with Q92A
notes: also called BC-56-WI24
binding result (cyno EphA2 ectodomain [19]): no binding (tested: EphA2 ectodomain titrated from 50 nM) | binding result (mouse EphA2 ectodomain [20]): no binding (tested: EphA2 ectodomain titrated from 50 nM)

B11: anti-EphA2 E152C S375C 1C1 (LC S93Q) hIgG1 (WT Heavy Chain) (antibody, V domains shown)
VH: B1 VH
VL: B1 VL with Q92N, S93Q
notes: also called DA-62-QP06
Kd (human EphA2 ectodomain [2]): 237 nM | koff (human EphA2 ectodomain [2]): 0.0635 s⁻¹ | kon (human EphA2 ectodomain [2]): 268000 M⁻¹ s⁻¹ | Kd (cyno EphA2 ectodomain [3]): 272 nM | koff (cyno EphA2 ectodomain [3]): 0.338 s⁻¹ | kon (cyno EphA2 ectodomain [3]): 1.24e+06 M⁻¹ s⁻¹ | Kd (mouse EphA2 ectodomain [4]): 335 nM | koff (mouse EphA2 ectodomain [4]): 0.0552 s⁻¹ | kon (mouse EphA2 ectodomain [4]): 165000 M⁻¹ s⁻¹ | EC50 [23]: 2.13 nM

Further lines, results first:

Kd [1]: 0.124 nM and 0.134 nM | EC50 [15]: 1.81 nM | Kd [7]: 0.129 nM
B5: anti-EphA2_1C1_DAR4_LC_N92Q_S72T_G77S (antibody, human IgG1, kappa, V domains shown)
VH: B1 VH
VL: B1 VL with S72T, G77S

EC50 [21]: 1.8 nM
B9: anti-EphA2_1C1_DAR4_LC_N92Q_S72T (antibody, human IgG1, kappa, V domains shown)
VH: B1 VH
VL: B1 VL with S72T
notes: also called HA-13-AF39

EC50 [22]: 2.59 nM
B10: anti-EphA2_1C1_DAR4_LC_N92Q_G77S (antibody, human IgG1, kappa, V domains shown)
VH: B1 VH
VL: B1 VL with G77S
notes: also called HE-07-PV32

binding result [24]: no binding (tested: 200 nM)
B12: 3207 (antibody, V domains shown)
VH: QVQLQQSGPGLVKPSQTLSLTCAISGDSVSSNSAAWSWIRQSPGRGLEWLGRIYYRSKWYNDYAVSVKSRITINPDTSKNQFSLQLNSVTPEDTAVYYCARLDHRYHEDTVYPGMDVWGQGTLVTVSS
VL: DIELTQPPSVSVAPGQTARISCSGDNLPAYTVTWYQQKPGQAPVLVIYDDSDRPSGIPERFSGSNSGNTATLTISGTQAEDEADYYCASWDPSSGVVFGGGTKLTVL
notes: the legend prints only '3207'; also called IgG (3207); IgG anti-chicken lysozyme antibody
